Measured values as given in article PMC5057313.

Molecular target: Arabidopsis ferredoxin : thioredoxin reductase catalytic subunit (AtFTRc), prey in pGADT7 (Arabidopsis thaliana) (UniProt Q9SJ89)
Sequence of UniProt Q9SJ89 (Q9SJ89 whole entry): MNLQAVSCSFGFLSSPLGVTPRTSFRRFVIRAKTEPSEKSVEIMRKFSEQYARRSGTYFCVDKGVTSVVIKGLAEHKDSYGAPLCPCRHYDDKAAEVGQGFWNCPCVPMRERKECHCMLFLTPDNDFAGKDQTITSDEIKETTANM

“MjTTL5 (transthyretin-like protein 5 of Meloidogyne javanica), bait in pGBKT7 (natural protein)” showed an H2O2 consumption of wild-type Arabidopsis protein with MjTTL5 against the MjTTL5-free treatment (only 1.8-fold in the AtFTRc mutants; Fig. S16c) of 2.5 fold.
